The values below come from the supplement of paper PMC10567573.

B1: TRIM29 (parent)
chain: FAEKGELRKSIFSESRKPTVSIME
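Further: lentivirally expressed fusions sorted by FACS into six bins by GFP to DsRed ratio, PSI derived from sequencing read proportions per bin multiplied by bin number.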

The variants in this series derive from B1. In words: protein stability index of a GFP-peptide fusion (GPS, HEK-293T) (PSI 1-6); higher = more stable. As to conditions: c terminus: a fixed tail appended.
For FEEKGELRKSIFSESRKPTVSIME, the protein stability index turned out to be 3.35.
As for FYEKGELRKSIFSESRKPTVSIME, the protein stability index was determined as 2.88.
On to FVEKGELRKSIFSESRKPTVSIME, for which the protein stability index amounted to 2.1.
As to FIEKGELRKSIFSESRKPTVSIME, the protein stability index is 1.89.
Consider FWEKGELRKSIFSESRKPTVSIME, for which the protein stability index came out at 2.74.
On to FCEKGELRKSIFSESRKPTVSIME, for which the protein stability index was 1.66.
Consider FPEKGELRKSIFSESRKPTVSIME, for which the protein stability index is 2.59.
Next, FQEKGELRKSIFSESRKPTVSIME: 3.44; FMEKGELRKSIFSESRKPTVSIME: 3.21.
Regarding FTEKGELRKSIFSESRKPTVSIME, the protein stability index amounted to 2.36.
In the case of FKEKGELRKSIFSESRKPTVSIME, the protein stability index was 3.44.
In the case of FREKGELRKSIFSESRKPTVSIME, the protein stability index amounted to 3.42.
Next, FSEKGELRKSIFSESRKPTVSIME: 2.53; FLEKGELRKSIFSESRKPTVSIME: 2.38.
Regarding FDEKGELRKSIFSESRKPTVSIME, the protein stability index was 3.76.
As for FGEKGELRKSIFSESRKPTVSIME, the protein stability index was determined as 2.06.
FHEKGELRKSIFSESRKPTVSIME: the protein stability index is 2.07.
Next, FFEKGELRKSIFSESRKPTVSIME: 2.52.
On to FAEKDELRKSIFSESRKPTVSIME, for which the protein stability index worked out at 1.8.
On to FAEKYELRKSIFSESRKPTVSIME, for which the protein stability index worked out at 2.53.
With FAEKWELRKSIFSESRKPTVSIME, the protein stability index was found to be 2.04.
Next, FAEKNELRKSIFSESRKPTVSIME: 1.93; FAEKQELRKSIFSESRKPTVSIME: 2.02.
Turning to FAEKVELRKSIFSESRKPTVSIME, the protein stability index was 1.66.
Consider FAEKKELRKSIFSESRKPTVSIME, for which the protein stability index stood at 1.78.
On to FAEKFELRKSIFSESRKPTVSIME, for which the protein stability index was 2.17.
For FAEKRELRKSIFSESRKPTVSIME, the protein stability index stood at 1.7.
Consider FAEKSELRKSIFSESRKPTVSIME, for which the protein stability index turned out to be 2.11.
In the case of FAEKEELRKSIFSESRKPTVSIME, the protein stability index came to 1.69.
Consider FAEKTELRKSIFSESRKPTVSIME, for which the protein stability index turned out to be 1.64.
Next, FAEKLELRKSIFSESRKPTVSIME: 2.37; FAEKIELRKSIFSESRKPTVSIME: 2.31; FAEKMELRKSIFSESRKPTVSIME: 1.72.
With FAEKCELRKSIFSESRKPTVSIME, the protein stability index amounted to 1.15.
Under FAEKPELRKSIFSESRKPTVSIME stands 2.46; under FAEKHELRKSIFSESRKPTVSIME, 2.3.
For FAEKAELRKSIFSESRKPTVSIME, the protein stability index was 1.99.
Regarding FAEKGELYKSIFSESRKPTVSIME, the protein stability index came out at 2.54.
FAEKGELQKSIFSESRKPTVSIME: the protein stability index is 1.93.
Consider FAEKGELGKSIFSESRKPTVSIME, for which the protein stability index stood at 1.56.
FAEKGELSKSIFSESRKPTVSIME: the protein stability index came out at 1.47.
With FAEKGELNKSIFSESRKPTVSIME, the protein stability index was found to be 2.44.
In the case of FAEKGELAKSIFSESRKPTVSIME, the protein stability index is 3.85.
With FAEKGELVKSIFSESRKPTVSIME, the protein stability index is 2.74.
As to FAEKGELEKSIFSESRKPTVSIME, the protein stability index was 2.
As for FAEKGELWKSIFSESRKPTVSIME, the protein stability index is 2.85.
With FAEKGELCKSIFSESRKPTVSIME, the protein stability index came to 2.08.
As to FAEKGELIKSIFSESRKPTVSIME, the protein stability index is 2.81.
Take FAEKGELKKSIFSESRKPTVSIME: the protein stability index is 2.23.
Regarding FAEKGELTKSIFSESRKPTVSIME, the protein stability index stood at 2.
In the case of FAEKGELFKSIFSESRKPTVSIME, the protein stability index is 2.64.
On to FAEKGELHKSIFSESRKPTVSIME, for which the protein stability index worked out at 1.54.
As to FAEKGELLKSIFSESRKPTVSIME, the protein stability index turned out to be 2.32.
Under FAEKGELDKSIFSESRKPTVSIME stands 2.55.
As to FAEKGELPKSIFSESRKPTVSIME, the protein stability index was found to be 1.89.
Take FAEKGELMKSIFSESRKPTVSIME: the protein stability index was determined as 1.81.
Turning to FAEKGEPRKSIFSESRKPTVSIME, the protein stability index stood at 2.52.
Take FAEKGEMRKSIFSESRKPTVSIME: the protein stability index came out at 2.02.
As for FAEKGESRKSIFSESRKPTVSIME, the protein stability index is 2.22.
Consider FAEKGEVRKSIFSESRKPTVSIME, for which the protein stability index came out at 1.62.
Consider FAEKGEGRKSIFSESRKPTVSIME, for which the protein stability index came to 1.46.
For FAEKGETRKSIFSESRKPTVSIME, the protein stability index was found to be 2.32.
Regarding FAEKGEQRKSIFSESRKPTVSIME, the protein stability index was 2.31.
For the variant FAEKGEARKSIFSESRKPTVSIME, the protein stability index was found to be 2.25.
Consider FAEKGEDRKSIFSESRKPTVSIME, for which the protein stability index was 1.78.
Under FAEKGEIRKSIFSESRKPTVSIME stands 2.18; under FAEKGEYRKSIFSESRKPTVSIME, 2.08.
Turning to FAEKGEKRKSIFSESRKPTVSIME, the protein stability index was determined as 1.7.
Turning to FAEKGEWRKSIFSESRKPTVSIME, the protein stability index stood at 3.9.
Take FAEKGECRKSIFSESRKPTVSIME: the protein stability index worked out at 2.8.
FAEKGEFRKSIFSESRKPTVSIME: the protein stability index was determined as 2.21.
Regarding FAEKGEHRKSIFSESRKPTVSIME, the protein stability index came out at 2.44.
FAEKGEERKSIFSESRKPTVSIME: the protein stability index amounted to 3.15.
Under FAEKGERRKSIFSESRKPTVSIME stands 1.82; under FAEKGENRKSIFSESRKPTVSIME, 1.55.
Turning to FADKGELRKSIFSESRKPTVSIME, the protein stability index is 1.9.
Consider FATKGELRKSIFSESRKPTVSIME, for which the protein stability index was 2.59.
Turning to FAFKGELRKSIFSESRKPTVSIME, the protein stability index is 1.42.
Consider FARKGELRKSIFSESRKPTVSIME, for which the protein stability index turned out to be 2.27.
For the variant FAHKGELRKSIFSESRKPTVSIME, the protein stability index is 1.66.
Take FAYKGELRKSIFSESRKPTVSIME: the protein stability index came to 1.88.
For the variant FAAKGELRKSIFSESRKPTVSIME, the protein stability index was determined as 3.08.
As for FASKGELRKSIFSESRKPTVSIME, the protein stability index is 3.11.
For FALKGELRKSIFSESRKPTVSIME, the protein stability index was 1.04.
Take FANKGELRKSIFSESRKPTVSIME: the protein stability index was 2.29.
FAQKGELRKSIFSESRKPTVSIME: the protein stability index amounted to 2.05.
With FAIKGELRKSIFSESRKPTVSIME, the protein stability index was determined as 2.43.
Consider FAPKGELRKSIFSESRKPTVSIME, for which the protein stability index was 2.79.
FAWKGELRKSIFSESRKPTVSIME: the protein stability index was 1.83.
For FAMKGELRKSIFSESRKPTVSIME, the protein stability index turned out to be 2.09.
With FAGKGELRKSIFSESRKPTVSIME, the protein stability index came to 2.95.
As for FACKGELRKSIFSESRKPTVSIME, the protein stability index amounted to 1.92.
Under FAKKGELRKSIFSESRKPTVSIME stands 2.29.
In the case of FAVKGELRKSIFSESRKPTVSIME, the protein stability index is 1.15.
